Measurements taken from article PMC5435990 (Nucleic Acids Research, 2017).
Changes are numbered by the printed parent chain. Names and notes keep the numbering of the source. Values joined by “and” are separate entries in the source; they are usually repeats but may differ in a detail not shown here. Equal entries are not always repeated.

Columns and labels:
[1] = target: the molecule itself; experiment: scanning Number and Brightness
[2] = target: the molecule itself; experiment: scanning Number and Brightness; remark: listed apart in the source
SEC = target: the molecule itself; experiment: SEC

B1: GFP-Mrr D203A catalytic mutant (enzyme)
chain: MTVPTYDKFIEPVLRYLATKPEGAAARDVHEAAADALGLDDSQRAKVITSGQLVYKNRAGWAHDRLKRAGLSQSLSRGKWCLTPAGFDWVASHPQPMTEQETNHLAFAFVNVKLKSRPDAVDLDPKADSPDHEELAKSSPDDRLDQALKELRDAVADEVLENLLQVSPSRFEVIVLDVLHRLGYGGHRDDLQRVGGTGDGGIAGVISLDKLGLEKVYVQAKRWQNTVGRPELQAFYGALAGQKAKRGVFITTSGFTSQARDFAQSVEGMVLVDGERLVHLMIENEVGVSSRLLKVPKLDMDYFE
[1]
  stoichiometry N: 2

B2: GFP-Mrr fusion protein (Mrr, Methylated adenine Recognition and Restriction, fused with GFPmut2) (enzyme)
chain: B1 chain with A203D
[2]
  stoichiometry N: 2

B3: Strep-tagged GFP-Mrr (enzyme, Escherichia coli K-12, UniProt P24202 1-304, looked up)
chain: B1 chain with A203D
SEC
  stoichiometry N: 4 and 2
